From paper PMC5737704, “The herpes viral transcription factor ICP4 forms a novel DNA recognition complex” (Nucleic Acids Research, 2017) come the findings set out here.

The stoichiometry N is the number of molecules, sites or subunits per partner or assembly.

The target in series [1] is T1, ICP4N (ICP4 DNA binding domain) (Herpes simplex virus 1, UniProt P08392 258-487).
T1 sequence: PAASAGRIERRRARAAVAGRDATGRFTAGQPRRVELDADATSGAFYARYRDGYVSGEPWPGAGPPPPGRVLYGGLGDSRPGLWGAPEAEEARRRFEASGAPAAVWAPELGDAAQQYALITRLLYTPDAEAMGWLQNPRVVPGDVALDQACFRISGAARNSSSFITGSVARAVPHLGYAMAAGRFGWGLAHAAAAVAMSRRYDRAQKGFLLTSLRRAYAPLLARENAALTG
The series can be described thus: X-ray crystallography; 2.28 A; SPR: 20 mM HEPES, 200 mM NaCl, 2 mM MgCl2, 0.05% Tween-20, pH 7.4, 25 C; NMR: 20 mM MES, 50 mM NaCl, 50 mM L-Arg, 50 mM L-Glu, 1 mM TCEP, 2 mM MgCl2, pH 6.6, 25 C. Conditions: protein: recombinant; tags: N-terminal Strep-tag, HRV3C-cleaved (removed); chain copies: 2; blunt.

Series [2] concerns the molecule itself. The series can be described thus: SEC-MALS; 0.5 ml at 1 mg/ml on Superdex 75 or Superdex 200 10/300GL in 20 mM HEPES, 150 mM NaCl, 50 mM L-Arg, 50 mM L-Glu, 0.5 mM TCEP, pH 7.9; free protein and (ICP4N) with IE3_19mer DNA. A general note: SEC sorts molecules by how far they enter the pores of the column.
Series [3] concerns the target T1, ICP4N (ICP4 DNA binding domain). The series can be described thus: SPR; 2 mM Mg2+; nanomolar Kd, value only in Fig 5C; SPR: 20 mM HEPES, 200 mM NaCl, 2 mM MgCl2, 0.05% Tween-20, pH 7.4, 25 C; NMR: 20 mM MES, 50 mM NaCl, 50 mM L-Arg, 50 mM L-Glu, 1 mM TCEP, 2 mM MgCl2, pH 6.6, 25 C. The settings on record: protein: recombinant; tags: N-terminal Strep-tag, HRV3C-cleaved (removed); chain copies: 2; label: 5' biotin on forward strand; blunt.

For series [4], the target named is T2, ICP4NdeltaIDR (ICP4deltaIDR) (Herpes simplex virus 1, UniProt P08392 288-487).
T2 sequence: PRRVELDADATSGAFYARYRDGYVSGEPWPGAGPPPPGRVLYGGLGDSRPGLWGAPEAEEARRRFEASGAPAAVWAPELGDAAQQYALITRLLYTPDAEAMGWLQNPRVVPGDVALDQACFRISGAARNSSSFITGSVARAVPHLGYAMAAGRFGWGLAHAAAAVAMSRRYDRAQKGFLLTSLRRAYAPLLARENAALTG
The experiment in a line: X-ray crystallography; 2.12 A; SPR: 20 mM HEPES, 200 mM NaCl, 2 mM MgCl2, 0.05% Tween-20, pH 7.4, 25 C; NMR: 20 mM MES, 50 mM NaCl, 50 mM L-Arg, 50 mM L-Glu, 1 mM TCEP, 2 mM MgCl2, pH 6.6, 25 C. Conditions: protein: recombinant; tags: N-terminal Strep-tag, HRV3C-cleaved (removed); chain copies: 2; blunt.

B1: IE3_19mer (dsDNA)
DNA 1: CCGATCGTCCACACGGAGC
DNA 2: GCTCCGTGTGGACGATCGG
As for B1, the binding result in series [1] was “binds”.

B2: ICP4 DNA binding domain, residues 258–487 (ICP4N) (domain or fragment)
chain: T1 sequence
notes: gene synthesised, codon optimised for E. coli; Strep-tag removed with HRV3C protease; Homodimer by SEC-MALS, AUC and crystal structure; also called ICP4 DBD; source: E. coli T7 Express LysY, purified (Strep-Tactin, Superdex 75); not shown: Strep-tag, N-terminal, cleaved
Consider B2, for which the “stoichiometry N” value in series [2] was 2.

B3: IE3_19mer, biotinylated (dsDNA)
DNA 1: CCGATCGTCCACACGGAGC
DNA 2: GCTCCGTGTGGACGATCGG
Consider B3, for which the binding result in series [3] was “binds”.

B4: truncated ICP4 DNA binding domain, residues 288–487 (ICP4NΔIDR) (domain or fragment)
chain: T2 sequence
notes: Strep-tag removed with HRV3C protease; also called ICP4ΔIDR; ICP4NdIDR; source: E. coli T7 Express LysY, purified (Strep-Tactin, Superdex 75); not shown: Strep-tag, N-terminal, cleaved
As for B4, the “stoichiometry N” value in series [2] worked out at 2.

B5: IE3_12mer (dsDNA)
DNA 1: CCGATCGTCCAC
DNA 2: GTGGACGATCGG
Consider B5, for which the binding result in series [4] is listed as “binds”.
